Source: US20240376170A1 (BRIGHT PEAK THERAPEUTICS, published 2024)
Bridges are numbered along the chain shown (N, C = ends). Primed or numbered codes have the meaning given here. [ ]: non-standard residue; d: D form. 8x polyethylene glycol‑amino = O-(8x polyethylene glycol-amino)-tyrosine, SITE 45; 9x polyethylene glycol‑azido = O-(9x polyethylene glycol-azido)-tyrosine, SITE 42; Ygp(8) = Tyr, amino-capped PEG8 (O-(8x polyethylene glycol-amino)-tyrosine); Yn3(8) = Tyr, azide-capped PEG9 (O-(9x polyethylene glycol-azido)-tyrosine); Ygp = O-(8x polyethylene glycol-amino)-tyrosine (Tyr, amino-capped PEG8); Yn3 = O-(9x polyethylene glycol-azido)-tyrosine (Tyr, azide-capped PEG9); Ygp″ = O-(8x polyethylene glycol-amino)-tyrosine; Yn3″ = O-(9x polyethylene glycol-azido)-tyrosine; PEG4′ = 4x polyethylene glycol; hSer = N[C@@H](CCO)C(=O)O; Nle = CCCC[C@H](N)C(=O)O

The binders below were run against T1, IL-2 receptor βγ complex (human, UniProt P14784 27-551; P31785 23-369) (assay: cell-based or functional assay).
T1 sequence (looked up) 1: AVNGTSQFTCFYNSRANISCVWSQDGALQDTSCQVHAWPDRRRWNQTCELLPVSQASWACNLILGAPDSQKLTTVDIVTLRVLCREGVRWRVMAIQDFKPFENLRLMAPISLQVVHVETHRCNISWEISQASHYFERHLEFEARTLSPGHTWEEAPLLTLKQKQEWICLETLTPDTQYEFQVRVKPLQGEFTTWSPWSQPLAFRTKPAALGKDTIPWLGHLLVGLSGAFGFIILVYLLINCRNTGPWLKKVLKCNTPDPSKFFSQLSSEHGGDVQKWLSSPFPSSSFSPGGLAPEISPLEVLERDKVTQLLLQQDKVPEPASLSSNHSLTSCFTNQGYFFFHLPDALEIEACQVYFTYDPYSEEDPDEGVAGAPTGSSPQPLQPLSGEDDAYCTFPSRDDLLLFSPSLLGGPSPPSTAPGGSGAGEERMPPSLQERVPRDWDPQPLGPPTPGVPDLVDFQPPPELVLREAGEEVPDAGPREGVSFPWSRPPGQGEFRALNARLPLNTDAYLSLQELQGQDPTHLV
T1 sequence (looked up) 2: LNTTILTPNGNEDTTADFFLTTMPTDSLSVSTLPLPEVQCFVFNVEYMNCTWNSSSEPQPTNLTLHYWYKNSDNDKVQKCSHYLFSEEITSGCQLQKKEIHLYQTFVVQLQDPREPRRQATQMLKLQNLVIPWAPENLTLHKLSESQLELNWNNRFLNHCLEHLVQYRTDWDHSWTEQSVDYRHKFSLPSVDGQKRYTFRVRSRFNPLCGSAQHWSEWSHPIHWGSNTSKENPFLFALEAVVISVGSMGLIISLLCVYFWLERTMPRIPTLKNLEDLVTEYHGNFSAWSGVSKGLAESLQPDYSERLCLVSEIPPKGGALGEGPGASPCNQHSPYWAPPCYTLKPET

Binder | Average EC50, pSTAT5 Assay in NK cells [nM]
CMP-329, Matriptase cleaved molecule (ligand, ends and bridges not checked; also: after matriptase cleavage, remnants of the Lys9–Glu23 peptide linker not given here) APTSSSTKKTQLQLEHLLLDLQEILNGINNYKNPKLTR[Nle]L[hSer][Yn3″]KF[Ygp″][Nle]PKKATELKHLQCLEEELKPLEEVL[hSer]LAQSKNFHLRPRDLISNINVIVLELKGSETTF[hSer]CEYADETATIVEFLNRWITFSQSIISTLT | 14.4
CMP-329 (ligand, bridge 9-23; not fully specified (bridges); ends not checked) APTSSSTKKTQLQLEHLLLDLQEILNGINNYKNPKLTR[Nle]L[hSer][Yn3″]KF[Ygp″][Nle]PKKATELKHLQCLEEELKPLEEVL[hSer]LAQSKNFHLRPRDLISNINVIVLELKGSETTF[hSer]CEYADETATIVEFLNRWITFSQSIISTLT | 20.6
CMP-329, uPa cleaved molecule (ligand, not fully specified; also: K9 and E23 side chains attached to another sequence, uPa-cleaved product, remnants not given here) APTSSSTKKTQLQLEHLLLDLQEILNGINNYKNPKLTR[Nle]L[hSer]Y(9x polyethylene glycol‑azido)KFY(8x polyethylene glycol‑amino)[Nle]PKKATELKHLQCLEEELKPLEEVL[hSer]LAQSKNFHLRPRDLISNINVIVLELKGSETTF[hSer]CEYADETATIVEFLNRWITFSQSIISTLT | 18.1
CMP-330, Matriptase cleaved molecule (ligand, not fully specified; also: K9 and E23 side chains attached to another sequence, matriptase-cleaved product, remnants not given here) APTSSSTKKTQLQLEHLLLDLQEILNGINNYKNPKLTR[Nle]L[hSer]Y(9x polyethylene glycol‑azido)KFY(8x polyethylene glycol‑amino)[Nle]PKKATELKHLQCLEEELKPLEEVL[hSer]LAQSKNFHLRPRDLISNINVIVLELKGSETTF[hSer]CEYADETATIVEFLNRWITFSQSIISTLT | 16.4
CMP-317 (ligand, bridge N-31; not fully specified (bridges); ends not checked) GSGSGSG[PEG4′]APTSSSTKKTQLQLEHLLLDLQEILNGINNYKNPKLTR[Nle]L[hSer][Yn3]KF[Ygp][Nle]PKKATELKHLQCLEEELKPLEEVL[hSer]LAQSKNFHLRPRDLISNINVIVLELKGSETTF[hSer]CEYADETATIVEFLNRWITFSQSIISTLT | 34.1
CMP-321 (ligand, lactam N-32) SGRVQPLVDAPTSSSTKKTQLQLEHLLLDLQEILNGINNYKNPKLTR[Nle]L[hSer][Yn3(8)]KF[Ygp(8)][Nle]PKKATELKHLQCLEEELKPLEEVL[hSer]LAQSKNFHLRPRDLISNINVIVLELKGSETTF[hSer]CEYADETATIVEFLNRWITFSQSIISTLT | 55.1
CMP-320 (ligand, lactam N-34) SGRVAPQPLVDAPTSSSTKKTQLQLEHLLLDLQEILNGINNYKNPKLTR[Nle]L[hSer][Yn3(8)]KF[Ygp(8)][Nle]PKKATELKHLQCLEEELKPLEEVL[hSer]LAQSKNFHLRPRDLISNINVIVLELKGSETTF[hSer]CEYADETATIVEFLNRWITFSQSIISTLT | 13.2
CMP-329, MMP2 cleaved molecule (ligand, ends and bridges not checked; also: after MMP2 cleavage, remnants of the Lys9–Glu23 peptide linker not given here) APTSSSTKKTQLQLEHLLLDLQEILNGINNYKNPKLTR[Nle]L[hSer][Yn3″]KF[Ygp″][Nle]PKKATELKHLQCLEEELKPLEEVL[hSer]LAQSKNFHLRPRDLISNINVIVLELKGSETTF[hSer]CEYADETATIVEFLNRWITFSQSIISTLT | 0.687
CMP-317, MMP2 cleaved molecule (ligand, also: A1 attached to another sequence via 4x polyethylene glycol, E23 side chain attached to another sequence, m119 after MMP2 cleavage, product not given here as a sequence) APTSSSTKKTQLQLEHLLLDLQEILNGINNYKNPKLTR[Nle]L[hSer]Y(9x polyethylene glycol‑azido)KFY(8x polyethylene glycol‑amino)[Nle]PKKATELKHLQCLEEELKPLEEVL[hSer]LAQSKNFHLRPRDLISNINVIVLELKGSETTF[hSer]CEYADETATIVEFLNRWITFSQSIISTLT | 12.2
CMP-328, Matriptase cleaved molecule (ligand, ends and bridges not checked; also: after matriptase cleavage, remnants of the Lys9–Glu23 peptide linker not given here) APTSSSTKKTQLQLEHLLLDLQEILNGINNYKNPKLTR[Nle]L[hSer][Yn3″]KF[Ygp″][Nle]PKKATELKHLQCLEEELKPLEEVL[hSer]LAQSKNFHLRPRDLISNINVIVLELKGSETTF[hSer]CEYADETATIVEFLNRWITFSQSIISTLT | 4.28
CMP-330, MMP2 cleaved molecule (ligand, not fully specified; also: K9 and E23 side chains attached to another sequence, MMP2-cleaved product, remnants not given here) APTSSSTKKTQLQLEHLLLDLQEILNGINNYKNPKLTR[Nle]L[hSer]Y(9x polyethylene glycol‑azido)KFY(8x polyethylene glycol‑amino)[Nle]PKKATELKHLQCLEEELKPLEEVL[hSer]LAQSKNFHLRPRDLISNINVIVLELKGSETTF[hSer]CEYADETATIVEFLNRWITFSQSIISTLT | 6.12
CMP-330, uPa cleaved molecule (ligand, not fully specified; also: Lys9 side chain attached to another sequence, Glu23 side chain attached to another sequence) APTSSSTKKTQLQLEHLLLDLQEILNGINNYKNPKLTR[Nle]L[hSer]Y(9x polyethylene glycol‑azido)KFY(8x polyethylene glycol‑amino)[Nle]PKKATELKHLQCLEEELKPLEEVL[hSer]LAQSKNFHLRPRDLISNINVIVLELKGSETTF[hSer]CEYADETATIVEFLNRWITFSQSIISTLT | 27
CMP-330 (ligand, bridge 9-23; not fully specified (bridges)) APTSSSTKKTQLQLEHLLLDLQEILNGINNYKNPKLTR[Nle]L[hSer]Y(9x polyethylene glycol‑azido)KFY(8x polyethylene glycol‑amino)[Nle]PKKATELKHLQCLEEELKPLEEVL[hSer]LAQSKNFHLRPRDLISNINVIVLELKGSETTF[hSer]CEYADETATIVEFLNRWITFSQSIISTLT | 20.3
CMP-328, uPa cleaved molecule (ligand, ends and bridges not checked; also: after uPa cleavage, remnants of the Lys9–Glu23 peptide linker not given here) APTSSSTKKTQLQLEHLLLDLQEILNGINNYKNPKLTR[Nle]L[hSer][Yn3″]KF[Ygp″][Nle]PKKATELKHLQCLEEELKPLEEVL[hSer]LAQSKNFHLRPRDLISNINVIVLELKGSETTF[hSer]CEYADETATIVEFLNRWITFSQSIISTLT | 2.96
CMP-318 (ligand, lactam N-32; ends not checked) SGRVANLVGAPTSSSTKKTQLQLEHLLLDLQEILNGINNYKNPKLTR[Nle]L[hSer][Yn3]KF[Ygp][Nle]PKKATELKHLQCLEEELKPLEEVL[hSer]LAQSKNFHLRPRDLISNINVIVLELKGSETTF[hSer]CEYADETATIVEFLNRWITFSQSIISTLT | 37.4
CMP-319 (ligand, lactam N-33; ends not checked) RGRRVANLVGAPTSSSTKKTQLQLEHLLLDLQEILNGINNYKNPKLTR[Nle]L[hSer][Yn3]KF[Ygp][Nle]PKKATELKHLQCLEEELKPLEEVL[hSer]LAQSKNFHLRPRDLISNINVIVLELKGSETTF[hSer]CEYADETATIVEFLNRWITFSQSIISTLT | 7.72
